Test results reported in patent US20150342943A1, “METHODS OF TREATING LIVER DISEASE” (Gilead Sciences, Inc., priority 2014, published 2015).

B1: AB0023: murine anti-LOXL2 antibody, heavy chain variable region SEQ ID NO: 15, light chain variable region SEQ ID NO: 16 (antibody, V domains shown)
VH: MEWSRVFIFLLSVTAGVHSQVQLQQSGAELVRPGTSVKVSCKASGYAFTYYLIEWVKQRPGQGLEWIGVINPGSGGTNYNEKFKGKATLTADKSSSTAYMQLSSLTSDDSAVYFCARNWMNFDYWGQGTTLTVSS
VL: MRCLAEFLGLLVLWIPGAIGDIVMTQAAPSVSVTPGESVSISCRSSKSLLHSNGNTYLYWFLQRPGQSPQFLIYRMSNLASGVPDRFSGSGSGTAFTLRISRVEAEDVGVYYCMQHLEYPYTFGGGTKLEIK
modifications: anti-LOXL2 antibody AB0023 heavy chain variable region; anti-LOXL2 antibody AB0023 light chain variable region

What was measured:
primary human HSCs [1] = experiment: α-SMA Assay in TGF-β-stimulated hepatic stellate cells; type: cell-based; conditions: 24 h, read-out: α-SMA Assay EC50
Protocol: For quantification of α-SMA protein expression, HSC's were plated at a density of 10,000 cells/well in collagen coated 96-well plates (BD-Biosystems). […] HSCs were fixed in 4% PFA, permeabilized in 0.02% Triton-X-100, blocked for 30 min. and stained with an anti-α-SMA specific antibody (Sigma) and a flourescently labeled secondary antibody (Invitrogen). α-SMA expression was quantified on a fluorescent plate reader.

HSCs = experiment: Quantitative RT-PCR of TGF-β1-induced gene transcription in HSCs; type: cell-based, human; conditions: pre-treated HSCs, TGF-β1 5 ng/ml for 48 hrs
Protocol: For gene expression assays, RNA was isolated using commercially available kit (Qiagen Midikit), converted to cDNA (Retroscript Kit, Ambion) and tested for expression of genes involved in fibrosis with human probes on ABI 7300 (Applied Biosystems). All assays were performed in triplicate.
Quantitative RT-PCR was used to determine the effects of compounds to inhibit TGF-β1-induced gene transcription of αSMA, COL1α1, […], and lumican.

primary human HSCs [2] = experiment: Collagen Assay (Sircol) in TGF-β-stimulated hepatic stellate cells; conditions: read-out: Collagen Assay EC50
Protocol: Collagen synthesis, α-SMA (smooth muscle actin) expression, and changes in transcript expression were measured in response to stimulation from ROS (reactive oxygen species) and TGF-β.
Commercially available primary human HSCs (Sciencell) were plated at a density of 250,000 cells/well on 12-well plates (Corning). HSCs were co-stimulated with 5 ng/mL TGF-β+/− ASK1 inhibitor compounds. Collagen production was assessed by Sircol Assay where extracellular collagen was digested with pepsin, followed by acid extraction, neutralization, and colometric quantification using the Sircol assay kit according to the manufacturer's protocols (BioColor).

male C57BL/6 mice = experiment: Interventional NASH model (treatment from day 240 of high fat, high cholesterol, high sugar diet); type: in vivo
Protocol: Liver homogenate (1.5 mL) was transferred to 1.5 mL Eppindorf tubes and centrifuged at 14,000 rpm for 10 min. Supernate was transferred to 96-deep well plate and diluted 1:1 with 4 M HCl. HYP levels were quantified using a commercially available hydroxyproline assay (Quickzyme Biosciences).
Commercially available high fat, high cholesterol, high sugar diet was administered continuously to 12 week old male C57BL/6 mice for 320 days. […] Animal cohorts (n=15) were sacrificed after 80 days of treatment. Collagen synthesis and hydroxyproline (HYP) were measured using D2O labeling. Second harmonic imaging was used to quantitate collagen morphometry.
Commercially available high fat, high cholesterol, high sugar diet was administered continuously to 12 week old male C57BL/6 mice for 320 days. […] At 80 days of treatment, collagen synthesis and HYP levels in each group (n=15) were determined using D2O labeling. […] Liver homogenate (1.5 mL) was centrifuged at 14,000×rpm for 10 min and the resulting supernate was d diluted 1:1 with 4 M HCl. HYP levels were quantified using a commercially available hydroxyproline assay (Quickzyme Biosciences).
In addition, immunohistochemistry and immunoblot analysis were used to characterize the levels of phospho-p38 (p-p38), phospho-JNK1 (p-JNK1), and phospho-MKK4 (p-MKK4) proteins.

Mdr2^−/− BALB/c = experiment: Interventional PSC model; type: in vivo, mice
Protocol: Control groups received treatment with either vehicle or an unrelated isotype-matched control IgG (i.e. a murine IgG1). Portal venous pressure
(PVP) was measured invasively by direct cannulation of the portal vein with a micro-tip pressure monitor at the end of the study. Liver fibrosis was evaluated by histology, biochemical determination of collagen and analysis of profibrogenic gene expression by qRT-PCR.

[3] = system: TAA-induced liver fibrosis; experiment: TAA-induced liver fibrosis; conditions: in vivo

Row | Molecule | EC50 (primary human HSCs [1]) [nM] | TGF-β1-induced responses in RNA levels of αSMA, COL1α1, TIMP1, and lumican (HSCs) | EC50 (primary human HSCs [2]) [nM] | synthesis rates of extracellular matrix proteins (Col1a1, Col1a3, and Col1a5) (male C57BL/6 mice; Example 3) | blood glucose and insulin levels (male C57BL/6 mice; additional studies) | relative hydroxyproline levels (male C57BL/6 mice; additional studies, FIG. 30) | reduction of hepatic collagen deposition (hydroxyproline levels) (Mdr2^−/− BALB/c; 6 weeks treatment, vs control group) [%] | portal venous pressure (PVP) (Mdr2^−/− BALB/c; end of study, control 10.1±0.2) [mmHg] | fibrosis progression in Mdr2^−/− mice (Mdr2^−/− BALB/c; mouse, in vivo) | TAA-induced fibrosis progression [3]
1 | Cc1cc(F)c(C(=O)Nc2cccc(-c3nncn3C(C)C)n2)cc1-n1cnc(C2CC2)c1 [Compound 3] | 18.9 | blocked or inhibited | 11.6 | – | – | – | – | – | – | –
2 | B1 | – | – | – | affected | did not affect | did not result in a decrease | 38 | 8.36±0.23 | blocked | blocked
